Laboratory results reported in the Human Domainome abundance scans (Beltran et al. 2025).
± gives the uncertainty stated by the source.

B1: Chromodomain-helicase-DNA-binding protein 3, residues 374 to 426; numbered along this chain, Q12873 (parent)
chain: YETDHQDYCEVCQQGGEIILCDTCPRAYHLVCLDPELDRAPEGKWSCPHCEKE

Variants of: B1
Experiment: abundance fitness (aPCA) (normalised: wild type 0, dead -1); higher = more abundant; growth selection in yeast, the domain comes from the species named
Settings: Homo sapiens

W45F and W45H are within error of each other in abundance fitness: 0.158 ± 0.17 for the first, -0.101 ± 0.18 for the second.

Going from W45Y to W45R, the abundance fitness falls from 0.171 ± 0.15 to -0.204 ± 0.1.

W45C and W45I are within error of each other in abundance fitness: -0.182 ± 0.17 for the first, -0.221 ± 0.17 for the second.

W45K and W45T are within error of each other in abundance fitness: -0.072 ± 0.16 for the first, -0.143 ± 0.17 for the second.

W45N and W45S are within error of each other in abundance fitness: 0.035 ± 0.19 for the first, -0.224 ± 0.12 for the second.

Compared with W45G, W45A is higher in abundance fitness: -0.312 ± 0.1 for the first, -0.037 ± 0.16 for the second.

First: W45Q
Second: W45L
The abundance fitness of the first is higher: 0.19 ± 0.15 for the first, -0.218 ± 0.1 for the second.

W45M and W45E are within error of each other in abundance fitness: -0.268 ± 0.16 for the first, -0.099 ± 0.15 for the second.

Going from D34M to D34Q, the abundance fitness rises from -0.494 ± 0.13 to -0.112 ± 0.15.

D34G and D34K are within error of each other in abundance fitness: -0.156 ± 0.099 for the first, -0.079 ± 0.12 for the second.

Compared with D34W, D34N is higher in abundance fitness: -0.747 ± 0.22 for the first, -0.189 ± 0.11 for the second.

D34S and D34A are within error of each other in abundance fitness: -0.127 ± 0.091 for the first, -0.198 ± 0.082 for the second.

D34L and D34C are within error of each other in abundance fitness: -0.083 ± 0.092 for the first, -0.316 ± 0.15 for the second.

D34V and D34F are within error of each other in abundance fitness: -0.1 ± 0.08 for the first, -0.287 ± 0.12 for the second.

D34H and D34Y are within error of each other in abundance fitness: -0.385 ± 0.14 for the first, -0.327 ± 0.13 for the second.

D34E and D34R are within error of each other in abundance fitness: -0.011 ± 0.11 for the first, -0.197 ± 0.093 for the second.

Going from D34P to D34I, the abundance fitness falls from -0.089 ± 0.11 to -0.383 ± 0.14.

A40V and A40T are within error of each other in abundance fitness: -0.081 ± 0.1 for the first, -0.162 ± 0.17 for the second.

Going from A40S to A40E, the abundance fitness rises from -0.221 ± 0.1 to 0.13 ± 0.12.

Compared with A40Q, A40W is lower in abundance fitness: 0.126 ± 0.14 for the first, -0.346 ± 0.17 for the second.

A40F and A40P are within error of each other in abundance fitness: -0.44 ± 0.16 for the first, -0.138 ± 0.15 for the second.

First: A40H
Second: A40M
The abundance fitness of the first is lower: -0.412 ± 0.22 for the first, -0.004 ± 0.13 for the second.

A40K and A40N are within error of each other in abundance fitness: -0.188 ± 0.19 for the first, -0.169 ± 0.26 for the second.

Going from A40D to A40G, the abundance fitness falls from 0.026 ± 0.19 to -0.398 ± 0.1.

A40R and A40L are within error of each other in abundance fitness: -0.129 ± 0.11 for the first, -0.107 ± 0.1 for the second.

A40Y and A40C are within error of each other in abundance fitness: -0.38 ± 0.17 for the first, -0.33 ± 0.13 for the second.

P41Y and P41A are within error of each other in abundance fitness: -0.153 ± 0.19 for the first, -0.114 ± 0.12 for the second.

P41I and P41K are within error of each other in abundance fitness: -0.083 ± 0.17 for the first, -0.25 ± 0.22 for the second.

P41T and P41M are within error of each other in abundance fitness: -0.06 ± 0.14 for the first, -0.202 ± 0.15 for the second.

Compared with P41W, P41S is higher in abundance fitness: -0.317 ± 0.12 for the first, -0.045 ± 0.11 for the second.

P41F and P41L are within error of each other in abundance fitness: -0.25 ± 0.2 for the first, 0.015 ± 0.1 for the second.

P41Q and P41G are within error of each other in abundance fitness: -0.073 ± 0.17 for the first, 0.028 ± 0.097 for the second.

P41H and P41D are within error of each other in abundance fitness: -0.374 ± 0.23 for the first, -0.368 ± 0.2 for the second.

P41C and P41E are within error of each other in abundance fitness: -0.344 ± 0.17 for the first, -0.092 ± 0.15 for the second.

P41N and P41R are within error of each other in abundance fitness: -0.026 ± 0.19 for the first, -0.093 ± 0.092 for the second.

K52V and K52G are within error of each other in abundance fitness: -0.357 ± 0.14 for the first, -0.137 ± 0.1 for the second.

K52R and K52S are within error of each other in abundance fitness: 0.013 ± 0.11 for the first, 0.049 ± 0.12 for the second.

K52N and K52D are within error of each other in abundance fitness: -0.024 ± 0.18 for the first, -0.413 ± 0.24 for the second.

K52E and K52M are within error of each other in abundance fitness: -0.308 ± 0.22 for the first, -0.156 ± 0.23 for the second.

Compared with K52W, K52P is higher in abundance fitness: -0.487 ± 0.17 for the first, 0.104 ± 0.18 for the second.

K52A and K52H are within error of each other in abundance fitness: -0.264 ± 0.14 for the first, -0.38 ± 0.28 for the second.

K52T and K52L are within error of each other in abundance fitness: 0.01 ± 0.2 for the first, -0.308 ± 0.12 for the second.

E36I and E36S are within error of each other in abundance fitness: -0.145 ± 0.26 for the first, -0.335 ± 0.13 for the second.

E36V and E36H are within error of each other in abundance fitness: -0.018 ± 0.1 for the first, -0.15 ± 0.23 for the second.

E36T and E36M are within error of each other in abundance fitness: -0.172 ± 0.26 for the first, -0.024 ± 0.2 for the second.

Compared with E36P, E36D is lower in abundance fitness: -0.039 ± 0.15 for the first, -0.507 ± 0.2 for the second.

E36G and E36Q are within error of each other in abundance fitness: -0.009 ± 0.1 for the first, -0.193 ± 0.15 for the second.

First: E36A
Second: E36W
The abundance fitness of the first is higher: -0.029 ± 0.13 for the first, -0.478 ± 0.2 for the second.

First: E36Y
Second: E36C
The abundance fitness of the first is lower: -0.405 ± 0.32 for the first, 0.182 ± 0.19 for the second.

E36L and E36N are within error of each other in abundance fitness: -0.114 ± 0.11 for the first, 0.143 ± 0.27 for the second.

E36R and E36F are within error of each other in abundance fitness: 0.018 ± 0.11 for the first, -0.083 ± 0.19 for the second.

D38M and D38L are within error of each other in abundance fitness: -0.416 ± 0.18 for the first, -0.216 ± 0.11 for the second.

D38K and D38Q are within error of each other in abundance fitness: -0.518 ± 0.24 for the first, -0.326 ± 0.19 for the second.

D38T and D38P are within error of each other in abundance fitness: -0.169 ± 0.21 for the first, -0.129 ± 0.15 for the second.

Going from D38A to D38R, the abundance fitness falls from -0.035 ± 0.15 to -0.352 ± 0.13.

D38C and D38Y are within error of each other in abundance fitness: -0.259 ± 0.19 for the first, -0.522 ± 0.28 for the second.

Going from D38N to D38V, the abundance fitness rises from -0.552 ± 0.16 to 0.011 ± 0.12.

D38W and D38G are within error of each other in abundance fitness: -0.319 ± 0.18 for the first, -0.142 ± 0.15 for the second.

D38S and D38H are within error of each other in abundance fitness: -0.09 ± 0.13 for the first, 0.066 ± 0.43 for the second.

D38F and E51D are within error of each other in abundance fitness: -0.082 ± 0.22 for the first, -0.37 ± 0.21 for the second.

E51Y and E51P are within error of each other in abundance fitness: -0.554 ± 0.37 for the first, -0.194 ± 0.15 for the second.

E51L and E51S are within error of each other in abundance fitness: -0.039 ± 0.1 for the first, -0.158 ± 0.14 for the second.

E51F and E51M are within error of each other in abundance fitness: -0.205 ± 0.23 for the first, -0.396 ± 0.16 for the second.

E51T and E51R are within error of each other in abundance fitness: -0.156 ± 0.14 for the first, -0.215 ± 0.12 for the second.

E51C and E51A are within error of each other in abundance fitness: -0.137 ± 0.17 for the first, -0.215 ± 0.095 for the second.

E51W and E51Q are within error of each other in abundance fitness: -0.501 ± 0.18 for the first, -0.533 ± 0.2 for the second.

Going from E51I to C47A, the abundance fitness falls from -0.438 ± 0.26 to -1.06 ± 0.15.

C47Y and C47T are within error of each other in abundance fitness: -0.972 ± 0.23 for the first, -0.931 ± 0.2 for the second.

C47H and C47D are within error of each other in abundance fitness: -1.07 ± 0.38 for the first, -0.512 ± 0.21 for the second.

C47W and C47V are within error of each other in abundance fitness: -0.847 ± 0.18 for the first, -0.753 ± 0.12 for the second.

C47R and C47Q are the same in abundance fitness: -0.835 ± 0.12 for the first, -0.835 ± 0.31 for the second.

C47S and C47F are within error of each other in abundance fitness: -0.814 ± 0.16 for the first, -0.465 ± 0.19 for the second.

C47G and C47K are within error of each other in abundance fitness: -0.767 ± 0.11 for the first, -1.02 ± 0.28 for the second.

Compared with C47M, C47E is lower in abundance fitness: -0.657 ± 0.18 for the first, -1.08 ± 0.21 for the second.

Going from C47P to L37R, the abundance fitness rises from -1.05 ± 0.22 to -0.094 ± 0.11.

L37T and L37N are within error of each other in abundance fitness: -0.275 ± 0.14 for the first, -0.189 ± 0.24 for the second.

L37P and L37I are within error of each other in abundance fitness: -0.154 ± 0.12 for the first, -0.191 ± 0.24 for the second.

L37V and L37W are within error of each other in abundance fitness: -0.143 ± 0.12 for the first, -0.298 ± 0.2 for the second.

L37K and L37F are within error of each other in abundance fitness: -0.116 ± 0.18 for the first, -0.426 ± 0.16 for the second.

First: L37C
Second: L37E
The abundance fitness of the first is higher: -0.142 ± 0.14 for the first, -0.732 ± 0.28 for the second.

Going from L37Y to L37S, the abundance fitness falls from 0.073 ± 0.15 to -0.295 ± 0.1.

L37D and L37Q are within error of each other in abundance fitness: -0.228 ± 0.17 for the first, -0.21 ± 0.16 for the second.

L37G and L37H are within error of each other in abundance fitness: -0.108 ± 0.1 for the first, -0.037 ± 0.17 for the second.

P48A gave an abundance fitness of -0.002 ± 0.11.
